Source: paper PMC5040590

Experiments:
[1] = target: r-synGAP-α1 (soluble, recombinant synGAP-α1, residues 103-1293) (rat); test: SPR; 'competition in solution': 25 nM r-synGAP-α1 pre-equilibrated with 0-10 µM soluble PDZ domain; free r-synGAP-α1 captured on the same PDZ domain amine-coupled to a CM5 chip; Biacore T200, HBS-EP+, 25°C; single-site fit
[2] = target: r-synGAP-α1 (soluble, recombinant synGAP-α1, residues 103-1293) (rat)
[3] = target: r-synGAP-α1 (soluble, recombinant synGAP-α1, residues 103-1293) (rat); test: pull-down; as a1, with or without Ca2+/CaM during the incubation with PDZ resin (legend: 0.7 mM CaCl2/3.4 μM CaM; methods: 2.5 µM CaM and 0.5 mM CaCl2); 500 nM r-synGAP-α1, 60 min, 25°C
[4] = target: calmodulin (CaM), with Ca2+ (UniProt P62157); test: SPR; CaM amine-coupled to a CM5 chip (50 RU); synGAP injected in HBS-EP+ with 10 mM CaCl2, 25°C, 100 µl/min; equilibrium analysis
[5] = target: PDZ123 domain-HaloTag fusion on HaloLink resin (PDZ123 affinity resin) (mouse) (UniProt Q62108); test: pull-down; PDZ domain-HaloTag fusions on HaloLink resin (20 µl); r-synGAP-α1 500 nM, 200 µl, 60 min, 25°C; 25 mM Tris pH 7.0, 150 mM NaCl, 1 mM MgCl2, 0.5 mM TCEP, 0.2% Tergitol, 0.5 mM EDTA; bound protein eluted, SDS-PAGE, Gel Code Blue, quantified
[6] = target: PDZ3 of PSD-95 (residues 302-402), soluble recombinant (mouse) (UniProt Q62108); test: SPR; conventional Biacore assay: varying concentrations of r-synGAP-α1 applied to a chip with immobilised PDZ domain; one experiment
[7] = target: CaM-Sepharose 4B (calmodulin on Sepharose resin) (UniProt P62157); test: pull-down; equilibrium binding of purified synGAP (1-500 nM, 300 µl) to 50 µl CaM-Sepharose 4B, 60 min; 50 mM Tris pH 7.5, 200 mM NaCl, 5 mM TCEP, 2 mM CaCl2; bound protein by quantitative immunoblot; hyperbolic fit
[8] = target: PDZ123 domain-HaloTag fusion on HaloLink resin (PDZ123 affinity resin) (UniProt Q62108); test: PDZ123 affinity resin binding (pull-down, eluate quantified); details: phosphorylated 0.5 min with 10 nM CaMKII, 0.7 mM CaCl2/3.4 μM CaM; resin 60 min at 25°C; n = 4; parent: est. 0.0079; read off a plot

Q: Which Kd [1] does the source give for “PDZ2 of PSD-95 (residues 155-249), soluble recombinant (from UniProt Q62108 155-249) (domain or fragment)” here?
A: 1500 nM

Q: How did the Kd [1] turn out when “PDZ3 of PSD-95 (residues 302-402), soluble recombinant (from UniProt Q62108 302-402) (domain or fragment)” was run?
A: 620 nM

Q: “calmodulin (CaM), with Ca2+ (from UniProt P62157 1-149) (natural protein)” was tested. Which rate and stoichiometry of phosphorylation of r-synGAP-α1 by CDK5/p35 or CDK5/p25 in the presence of Ca2+/CaM (0.7 mM CaCl2, 3.4 μM CaM) [2] did it give?
A: 2 fold

Q: And the percent reduction of binding of r-synGAP-α1 to PDZ3 with Ca2+/CaM [3]?
A: 25%

Q: “r-synGAP-α1 (soluble, recombinant synGAP-α1, residues 103-1293) (domain or fragment)” was tested. Which Kd [4] did it give?
A: 9 nM

Q: What about the amount bound per individual PDZ domain, relative to PDZ1 or PDZ2 alone [5] of the same substance?
A: 4 fold

Q: What about the amount bound per individual PDZ domain, relative to PDZ3 alone [5] of the same substance?
A: 2 fold

Q: What about the Kd [6] of the same substance?
A: 730 nM

Q: And the Kd [7]?
A: 31 nM

Q: For “r-synGAP-α1 phosphorylated by CaMKII for 0.5 min S1093D; S1123D”, which response (pmol r-synGAP-α1/pmol PDZ domain) [8] is on record?
A: 0.0083

Q: “r-synGAP-α1 phosphorylated by CaMKII for 0.5 min S1093D; S1123D; S1283D” was tested. Which response (pmol r-synGAP-α1/pmol PDZ domain) [8] did it give?
A: 0.014

Q: How did the response (pmol r-synGAP-α1/pmol PDZ domain) [8] turn out when “r-synGAP-α1 phosphorylated by CaMKII for 0.5 min S1123D” was run?
A: 0.0099

Q: For “r-synGAP-α1 phosphorylated by CaMKII for 0.5 min S1283D”, which response (pmol r-synGAP-α1/pmol PDZ domain) [8] is on record?
A: 0.011

Q: “r-synGAP-α1 phosphorylated by PLK2 for 10 min (domain or fragment)” was tested. Which decrease of binding relative to unphosphorylated r-synGAP-α1 [5] did it give?
A: 40%
